Data published in the Human Domainome abundance scans (Beltran et al. 2025).

B1: Segment polarity protein dishevelled homolog DVL-3, residues 2 to 81; numbered along this chain, Q92997 (parent)
chain: GETKIIYHLDGQETPYLVKLPLPAERVTLADFKGVLQRPSYKFFFKSMDDDFGVVKEEISDDNAKLPCFNGRVVSWLVSA

Variants of: B1
Experiment: abundance fitness (aPCA) (normalised: wild type 0, dead -1); higher = more abundant; growth selection in yeast, the domain comes from the species named
Conditions: Homo sapiens

Abundance fitness, by site and new letter:
S47: P -0.675; A -0.051; K 0.324; M 0.415; C 0.251; D -0.658; T 0.325; H -0.207; L 0.024; R 0.34; E -0.726; Q -0.212; I 0.336; G -0.336; F 0.011; V 0.269; N 0.092; W -0.519
L36: D -0.37; T -0.824; G -0.993; E -0.728; Q -0.668; V -0.187; A -0.785; S -0.629; P -0.244; H -0.988; F 0.097; N -0.522; M -0.465; C -0.563; R -0.528; K -0.725
S40: N 0.167; M 0.098; V 0.134; D 0.282; K -0.091; A -0.024; R -0.254; E 0.003; G 0.116; C 0.045; W -0.1; Y 0.121; F -0.157; L -0.258; Q 0.004; P -0.261
G34: H -0.388; T -0.016; W -0.649; C -0.213; M 0.042; N 0.291; P -1.03; Q 0.166; Y -0.388; D 0.418; I -0.519; R 0.156; A 0.174; L -0.119; V -0.371
K33: R -0.693; E -0.672; W -0.52; N -0.087; Q -0.94; C -0.589; G -0.704; P -1.13; F -0.661; S -0.527; V -0.762; L -0.936; A -1.08; D -1.06; H -0.631; T -0.618; I -0.939
A30: Q -0.465; S -0.261; Y -0.468; V -0.742; K 0.007; G -0.045; W -0.517; T -0.795; L -0.562; N -0.433; I -0.82; R 0.034; M -0.479; H -0.692
M48: W 0.017; V 0.125; T 0.296; C 0.133; L -0.074; K 0.039; Q 0.089; E 0.09; I -0.13; N 0.567; R 0.204; G 0.316; A 0.287; Y 0.175; S 0.283; F -0.121; H 0.056
F43: T -0.695; C -0.391; K -0.644; D -0.64; Q -0.909; L -0.693; I -0.611; G -0.753; N -0.565; H -0.799; P -1.12; V -0.658; W -0.58; M -0.291; A -0.552
Y41: H -0.304; P -0.538; W -0.331; D -0.673; L -0.624; S -0.72; G -0.496; C -0.227; A -0.431; T -0.511; R -0.741; V -0.388; E -0.486; Q -0.403; N -0.727; K -0.787
P39: N 0.061; M 0.006; Y -0.494; W -0.466; D 0.357; V -0.106; H 0.073; R -0.037; C -0.306; Q 0.11; E 0; G 0.062; A -0.14; S 0.051; T 0.062; I -0.066; K 0.194
V35: K -0.365; D -0.892; H -0.301; C -0.074; F -0.031; L -0.164; A 0.173; T -0.167; I -0.141; G -0.842; M -0.25; Q -0.218; P -0.869; E -0.468; Y -0.212; S -0.257; N -0.375
K42: Y -0.957; T -0.356; M -0.659; V -0.841; W -0.783; A -0.602; S -0.716; H -0.043; P -0.763; Q -0.044; F 0.052; E -0.636; C -0.624; R 0.158; L -0.86; D -0.953; N -0.421
F32: K -1.01; N -1.28; L -0.337; V -0.819; M -0.624; D -0.688; E -0.649; T -0.598; Q -0.855; I -0.469; P -0.686; R -0.543; G -0.916; A -0.622; H -0.447; W -0.61; Y -0.544
Q37: C -0.078; E 0.048; W -0.483; F -0.433; L -0.154; I -0.179; M -0.048; K 0.165; N 0.122; P 0.092; Y -0.1; V -0.124; G 0.048; D 0.225; A -0.1; H -0.073; T -0.067
F44: G -0.754; V -0.756; N -0.653; P -0.685; R -0.753; Y -0.015; D -0.749; W -0.244; C -0.689; I -0.624; Q -0.745; L -0.351; K -0.818; A -0.614; E -0.683; H -0.807
D31: P -0.35; R -0.711; N -0.665; L -0.791; F -0.742; Y -0.714; E -0.178; A -0.099; G -0.776; V -0.448; Q -0.634; H 0.282; I -0.173; C -0.359; W -0.618; S -0.577; M -0.047; T -0.217
F45: K -0.934; Q -0.669; V -0.755; N -0.407; A -0.533; L -0.775; R -0.669; C -0.569; M -0.868; S -0.856; H -0.864; I -0.969; T -0.596; D -0.775; W -0.605; E -0.379; P -0.581
D49: M -0.402; F -0.488; N 0.296; I -0.231; K 0.203; G -0.046; W -0.461; Q -0.053; C 0.013; L -0.564; V -0.364; A 0.018; H 0.136; E -0.038; T 0.111; S 0.234
R38: Y -0.188; V -0.024; S 0.159; N 0.255; W -0.099; F -0.142; T 0.187; H 0.001; K 0.147; Q -0.069; I -0.181; E 0.13; P -0.341; C 0.139; M 0.032; D 0.284; L -0.114; G -0.076; A 0.009
D50: A -0.15
K46: M -0.081; Q 0.165; H -0.132; L -0.138; W -0.227; F -0.488; R -0.08; V -0.407; P -0.437; E 0.277; S -0.196; Y -0.401; I -0.189; G -0.223; T -0.392; N -0.046; D -0.061; C -0.068
